# Experimental data published in the RNAGym collection of RNA variant scans (doi:10.1073/pnas.2313332121).
# B1: TPR t1 (parent)
# chain: GACCAAUCUGCCCUCAGAGCUCGAGAACAUCUUCGGAUGCAGAGGAGGCAGGCUUCGGUGGCGCGAUAGCGCCAACGUCCUCAACCUCCAAUGCAUCCCACCACAUGAUGAUGCCUGAAGAGCCUUGGUUUUUUG
# Variants of: B1
# Assay: polymerase ribozyme fitness, log enrichment relative to wild type (log ratio); higher = more active; in vitro selection for triplet polymerase activity
# Procedure, shortened: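 To select mutant libraries of each subunit of a heterodimeric triplet polymerase ribozyme, built by PCR and transcribed, each was annealed with a biotinylated primer, partner subunit and triplets, then incubated frozen at −7 °C. Extended constructs were gel-excised, captured on streptavidin beads and amplified by RT-PCR, in one round carried out in triplicate. Illumina sequencing of input and output libraries kept genotypes with ≥10 input reads and ≥1 read per output. Fitness is the base-2 logarithm of genotype enrichment relative to wild-type enrichment, from inverse-variance-weighted replicate averages.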
row,Variant,polymerase ribozyme fitness (log ratio)
1,A2U G47U G61U,-4.48
2,A2G C20U G60C,-1.66
3,A2G A111C U112G G113U U116A C124A,-2.74
4,A2G G17A,-2.9
5,A2U C8U G45A A95G G120A,-0.217
6,A2G C70A C123U,-0.0496
7,A2U A100U,-3.18
8,A2C G61C A121C,-1.16
9,A2U A27G U54G C123U,-3.79
10,A2C A37C C94U U96A U112C C114U,-4.55
11,A2G C13G C82G U129C,-1.79
12,A2C C4G G39C G69U C102U,-2.39
13,A2U G10A,-2.85
14,A2G C12A C85A G113C,-5.2
15,A2U G71C C101U G127U,-2.85
16,A2U C73A U130A U133G,-2.47
17,A2U G44U C70U A90U,-5.08
18,A2U C4A C13U C123A,1.02
19,A2G G57A G61A G117U,-3.55
20,A2G U106G U125G,-2.92
21,A2G C88U,-0.191
22,A2U G10C G71U A121C,-1.06
23,A2C C12A G110A U133A,-2.17
24,A2U C70U C88A,-3.44

row,Variant,polymerase ribozyme fitness (log ratio)
1,A2U C4U G39C G44U G61A A83G C89U A121U,-2.89
2,A2G A50U G57C G60C C85G G113A,-2.81
3,A2G C12A C15U G45U U106A,-3.92
4,A2U C56A G63U U106A C115G,-6.59
5,A2G G61A C102U U109A,-5.41
6,A2C U109G C114U U129G,-5.24
7,A2G C11U G48C U92A,-4.56
8,A2U C12U U78C U87G U112G,-3.07
9,A2G C20U G36C C123U,-1.11
10,A2G C72U A74U C102U U130A,-3.21
11,A2U U9A A26C G60A G117U,-6.53
12,A2C C11U G61A G120A,-0.476
13,A2U A18U C124A U129G,-2.31
14,A2C G60A C82U,-2.16
15,A2G U9G C56U C88A,-1.54
16,A2C C4G C114A,-3.53
17,A2U C64U,-2
18,A2U A100U U116C,-3.73
19,A2C C11U C114G,-4.14
20,A2U A27U A74C U87A U112A G127U,-2.94
21,A2G C20G G71C G113C,-3
22,A2C C115A,-1.3
23,A2C C123U G128C,-0.305
24,A2U C20A G69U C70G,-5.15

row,Variant,polymerase ribozyme fitness (log ratio)
1,A2U A27G G61A C104A U112C G122U,-2.93
2,A2U C8G G39C G61C C79U C101A,-4.35
3,A2C G39C G69U U112C,-0.882
4,A2G C12U A43U G44U C115U,-2.29
5,A2U C4G C22G U32C C70A A111U G128C,-4.89
6,A2G C8G C22U,-5.08
7,A2G G52A C85U,-1.87
8,A2C C40U G60U C62G,-3.56
9,A2G C89A,-2.01
10,A2U C56U,-2.27
11,A2U U87G U96G,-3.12
12,A2C C28U U87C,-3.82
13,A2U C70U,-2.28
14,A2U A5C C13U G48A C70A,-4.35
15,A2C C3U C56G G69U,-4.15
16,A2G C8G U96A G135U,-1.73
17,A2U C53G C76U U125G,-4.01
18,A2U U54A,-2.36
19,A2C C3G A90G,-3.04
20,A2U G63C,-3.13
21,A2U G63A,-2.23
22,A2U C89A C115A,-3.43
23,A2G C13U A41C G48C U78G A111G,-1.71
24,A2U C8U C11G,-0.458

row,Variant,polymerase ribozyme fitness (log ratio)
1,A2U C123A,-1.63
2,A2G A29G G120A C123G,-0.383
3,A2U A50U C56U,-3.13
4,A2G U78A C79U,0.0458
5,A2G C13A C72U U129G,-2.36
6,A2U G51U U59G A84C,-4.9
7,A2U G10U C15G U106A,-2.38
8,A2G U78C,-0.357
9,A2C C4A U9G C12G C104U U116C U133A,0.375
10,A2U C8A A74U A95U G110A G127U U130C,-3.91
11,A2U C12G A95U,-2.91
12,A2C G36C C62U,-2.66
13,A2G C62U U78A A103C,-5.9
14,A2U C15A,-4.12
15,A2G A91U U96G G120U,-2.53
16,A2G U38G G42U C115U,-3.06
17,A2C C11A G60A G69U C89G G122A,-3.67
18,A2G C88A G93A C115A G117U,-6.36
19,A2G C11U C22G C62U U130A,-4.9
20,A2G C62U G110A C114G C124A,-7.09
21,A2U C49U G113C,-5.26
22,A2U C4U G61U C101A G127C,-3.03
23,A2G C8U,0.157
24,A2G C13U A46U C62A C86A G113U G120U C123G,-6.73

row,Variant,polymerase ribozyme fitness (log ratio)
1,A2C C11G G17U G51C U55C C56G,-4.03
2,A2C C3G C28G C82G A121C G128C,-4.07
3,A2G A41U A46U,-3.37
4,A2U C53G C56U G69U,-1.92
5,A2C C11U,-2.65
6,A2C G36A U54C,-2.04
7,A2C C49G,-2.18
8,A2U A6U C13U C20U G57A C82G,-4.79
9,A2U C11U G69A,-4.07
10,A2C A18U C124A,-3.22
11,A2G C56G C89G A90C,-2.84
12,A2C C64U,-1.07
13,A2G C12U A66G C79A G122A,-2.62
14,A2U U21A G36A C56U C114A,-3.98
15,A2U C8G C15U C64U,-2.18
16,A2G G77U C82G,-0.807
17,A2C U96A,-3.03
18,A2U G77A,-2.8
19,A2U U7G C22A U33G C72U G120C,-7
20,A2C G63U A100U U133G,-3.47
21,A2G C72U,0.0702
22,A2G C123U,1.06
23,A2C G71C C99A A105U A111G,-6.44
24,A2C G52A,-2.22

row,Variant,polymerase ribozyme fitness (log ratio)
1,A2C C73A,-1.09
2,A2C C72U G117A,-3.25
3,A2G U7C G10U G52C,-1.99
4,A2U C40A G61U C73A U92A C104U,-5.16
5,A2U A43U C53G C73U U106A,-7.47
6,A2U C11U C97G G110C C114U G120C,-6.26
7,A2U C40U C115A A121U,0.0194
8,A2C C8A C72U C123U,-0.16
9,A2U G10U G42A C88U C89G U92G C115G,-6.18
10,A2U A6C C76A C115U U126A U129C U130A U133A,-4.89
11,A2U C11G G48C G120U G128C,-0.718
12,A2U C3G C79A G113A C124G,-4.18
13,A2U U9G A50G C62U C98A G120C,-5.94
14,A2C A5C C64U C114G C124A,-3.6
15,A2C C72A C114G,-4.02
16,A2U U106A G128U U131C,-1.21
17,A2C C70U A91C C101U U112A U129C,-4.54
18,A2G C15G G44A C62A A90C C97U G120A,-3.89
19,A2U G61U,-1.84
20,A2U G61A,-2.17
21,A2C C101U,-1.67
22,A2C C101A,-2.7
23,A2G C15U A43U G45U C56U C62U,-6.15
24,A2U A43C U59A,-5.8

row,Variant,polymerase ribozyme fitness (log ratio)
1,A2C G71U G93A U112A G113C,-4.56
2,A2U G19U C70U A121G,-4.27
3,A2G C13A A68U C85A A103U G117U,-6.8
4,A2U A16U G45A U87C A121C,-2.88
5,A2G G45A G63U U112A,-0.348
6,A2U A5G G60C,-4
7,A2U A50C C70U C101U,-3.18
8,A2G C11G G42A C89G,-4.87
9,A2G G10A C53U C62U A90G,-0.379
10,A2U C8G G36U G45A C102U G120A G127C,-4.41
11,A2U C3G G58A,-2.99
12,A2G C28U,-2.27
13,A2C G60C,-1.65
14,A2C U38A C56A G113C U129A,-4.44
15,A2U C73A U78A U87C C124A U126A,-1.46
16,A2C C13A C72U,-4.81
17,A2G A5C C11A G71U C99U,-3.65
18,A2G,-0.0197
19,A2C,-1.4
20,A2U,-2.07
21,A2G C56G C70G U112A,-3.63
22,A2U G60U C82G,-3.31
23,A2C U33A G60A G71U C115U,-6.78
